Measurements reported in PMC10946529.

Target: T1, [FeFe]-hydrogenase CaHydA from Clostridium acetobutylicum (Clostridium acetobutylicum) (UniProt Q59262)
T1 sequence: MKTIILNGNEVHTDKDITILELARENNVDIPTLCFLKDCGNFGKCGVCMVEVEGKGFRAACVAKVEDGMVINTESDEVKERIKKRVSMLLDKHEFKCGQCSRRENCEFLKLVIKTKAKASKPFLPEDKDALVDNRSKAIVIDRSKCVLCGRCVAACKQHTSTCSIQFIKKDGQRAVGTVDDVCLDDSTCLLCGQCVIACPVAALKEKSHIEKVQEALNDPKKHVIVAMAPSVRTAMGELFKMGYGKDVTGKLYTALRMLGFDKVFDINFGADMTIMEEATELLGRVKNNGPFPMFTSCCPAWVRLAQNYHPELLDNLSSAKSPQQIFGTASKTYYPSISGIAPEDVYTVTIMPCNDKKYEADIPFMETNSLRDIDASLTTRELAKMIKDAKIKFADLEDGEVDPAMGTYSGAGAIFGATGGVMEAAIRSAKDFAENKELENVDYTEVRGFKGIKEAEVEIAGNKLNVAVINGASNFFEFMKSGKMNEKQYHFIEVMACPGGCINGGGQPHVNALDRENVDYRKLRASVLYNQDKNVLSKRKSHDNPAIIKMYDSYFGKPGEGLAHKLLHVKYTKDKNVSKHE

- turnover frequency (TOF) of electron transfer from CaHydA to the Mq5 cluster in H2 oxidation, assuming cluster concentration equal to the peptide concentration: 79 s⁻¹
- turnover frequency (TOF) of electron transfer from CaHydA to the Mq5 cluster in H2 oxidation, corrected for about 40 % cluster formation relative to FdM1: 31 s⁻¹
Binder: Ac-GCGGGCGGCGGCGY-NH2 (also: [4Fe4S] cluster coordinated by the four Cys) [[4Fe4S]-peptide maquette Mq5 (Ac-…-NH2)]
